# Experimental data: the supplement of paper PMC10567573
# B1: C1orf137 (parent)
# chain: LPQETNLTLKVCKPQAPQKLDPTL
# B2: PRAME (parent)
# chain: KKLKIFAMPMQDIKMILKMVQLDS
# Variants of: B1
# Experiment: protein stability index of a GFP-peptide fusion (GPS, HEK-293T) (PSI 1-6); higher = more stable
# Details: c terminus: a fixed tail appended
# 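Also: lentivirally expressed fusions sorted by FACS into six bins by GFP to DsRed ratio, PSI derived from sequencing read proportions per bin multiplied by bin number.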
row,Variant,protein stability index
1,LPHETNLTLKVCKPQAPQKLDPTL,3.6
2,LPLETNLTLKVCKPQAPQKLDPTL,3.58
3,LPWETNLTLKVCKPQAPQKLDPTL,2.54
4,LPCETNLTLKVCKPQAPQKLDPTL,4.12
5,LPEETNLTLKVCKPQAPQKLDPTL,4.59
6,LPYETNLTLKVCKPQAPQKLDPTL,3.34
7,LPVETNLTLKVCKPQAPQKLDPTL,3.73
8,LPAETNLTLKVCKPQAPQKLDPTL,4.3
9,LPRETNLTLKVCKPQAPQKLDPTL,3.29
10,LPSETNLTLKVCKPQAPQKLDPTL,3.8
11,LPNETNLTLKVCKPQAPQKLDPTL,3.53
12,LPIETNLTLKVCKPQAPQKLDPTL,3.1
13,LPKETNLTLKVCKPQAPQKLDPTL,3.96
14,LPGETNLTLKVCKPQAPQKLDPTL,3.63
15,LPMETNLTLKVCKPQAPQKLDPTL,3.6
16,LPPETNLTLKVCKPQAPQKLDPTL,3.79
17,LPDETNLTLKVCKPQAPQKLDPTL,4.33
18,LPTETNLTLKVCKPQAPQKLDPTL,4.17
19,LPFETNLTLKVCKPQAPQKLDPTL,3.08

row,Variant,protein stability index
1,PPQETNLTLKVCKPQAPQKLDPTL,4.65
2,NPQETNLTLKVCKPQAPQKLDPTL,3.77
3,DPQETNLTLKVCKPQAPQKLDPTL,4.73
4,RPQETNLTLKVCKPQAPQKLDPTL,3.48
5,APQETNLTLKVCKPQAPQKLDPTL,4.06
6,YPQETNLTLKVCKPQAPQKLDPTL,3.04
7,HPQETNLTLKVCKPQAPQKLDPTL,3.36
8,IPQETNLTLKVCKPQAPQKLDPTL,3.97
9,QPQETNLTLKVCKPQAPQKLDPTL,4.38
10,KPQETNLTLKVCKPQAPQKLDPTL,3.93
11,EPQETNLTLKVCKPQAPQKLDPTL,4.8
12,CPQETNLTLKVCKPQAPQKLDPTL,4
13,TPQETNLTLKVCKPQAPQKLDPTL,4.44
14,FPQETNLTLKVCKPQAPQKLDPTL,2.79
15,VPQETNLTLKVCKPQAPQKLDPTL,4.34
16,WPQETNLTLKVCKPQAPQKLDPTL,3.98
17,SPQETNLTLKVCKPQAPQKLDPTL,4.46
18,MPQETNLTLKVCKPQAPQKLDPTL,4.04
19,LIQETNLTLKVCKPQAPQKLDPTL,3.49

row,Variant,protein stability index
1,LMQETNLTLKVCKPQAPQKLDPTL,2.23
2,LHQETNLTLKVCKPQAPQKLDPTL,3.5
3,LGQETNLTLKVCKPQAPQKLDPTL,3.79
4,LKQETNLTLKVCKPQAPQKLDPTL,3.06
5,LVQETNLTLKVCKPQAPQKLDPTL,3.13
6,LSQETNLTLKVCKPQAPQKLDPTL,2.8
7,LLQETNLTLKVCKPQAPQKLDPTL,2.65
8,LDQETNLTLKVCKPQAPQKLDPTL,4.3
9,LQQETNLTLKVCKPQAPQKLDPTL,3.76
10,LCQETNLTLKVCKPQAPQKLDPTL,3.27
11,LFQETNLTLKVCKPQAPQKLDPTL,2.85
12,LNQETNLTLKVCKPQAPQKLDPTL,3.46
13,LRQETNLTLKVCKPQAPQKLDPTL,2.88
14,LYQETNLTLKVCKPQAPQKLDPTL,3.14
15,LEQETNLTLKVCKPQAPQKLDPTL,4.18
16,LWQETNLTLKVCKPQAPQKLDPTL,2.16
17,LTQETNLTLKVCKPQAPQKLDPTL,3.92
18,LAQETNLTLKVCKPQAPQKLDPTL,3.84
19,LPQATNLTLKVCKPQAPQKLDPTL,3.77

# Variants of: B2
# Experiment: as above
# Details: c terminus: a fixed tail appended
row,Variant,protein stability index
1,KKLKIFAMPMQDIKTILKMVQLDS,2.15
2,KKLKIFAMPMQDIKVILKMVQLDS,2.85
3,KKLKIFAMPMQDIKRILKMVQLDS,2.25
4,KKLKIFAMPMQDIKMILKMVQLDH,2.91
5,KKLKIFAMPMQDIKMILKMVQLDF,2.85
6,KKLKIFAMPMQDIKMILKMVQLDA,3.45
7,KKLKIFAMPMQDIKMILKMVQLDQ,2.02
8,KKLKIFAMPMQDIKMILKMVQLDD,4.26
9,KKLKIFAMPMQDIKMILKMVQLDN,2.87
10,KKLKIFAMPMQDIKMILKMVQLDG,2.47
11,KKLKIFAMPMQDIKMILKMVQLDE,4.07
12,KKLKIFAMPMQDIKMILKMVQLDK,2.42
13,KKLKIFAMPMQDIKMILKMVQLDM,3.73
14,KKLKIFAMPMQDIKMILKMVQLDV,2.5
15,KKLKIFAMPMQDIKMILKMVQLDT,2.39
16,KKLKIFAMPMQDIKMILKMVQLDP,1.9
17,KKLKIFAMPMQDIKMILKMVQLDI,2.49
18,KKLKIFAMPMQDIKMILKMVQLDR,3.56
19,KKLKIFAMPMQDIKMILKMVQCDS,1.88
20,KKLKIFAMPMQDIKMILKMVQHDS,3.28
21,KKLKIFAMPMQDIKMILKMVQADS,1.13
22,KKLKIFAMPMQDIKMILKMVQVDS,3.63

row,Variant,protein stability index
1,KKLKIFAMPMQDIKMILKMVQIDS,3.88
2,KKLKIFAMPMQDIKMILKMVQRDS,2.83
3,KKLKIFAMPMQDIKMILKMVQDDS,4.71
4,KKLKIFAMPMQDIKMILKMVQMDS,1.42
5,KKLKIFAMPMQDIKMILKMVQQDS,2.51
6,KKLKIFAMPMQDIKMILKMVQYDS,2.57
7,KKLKIFAMPMQDIKMILKMVQPDS,3.45
8,KKLKIFAMPMQDIKMILKMVQKDS,1.95
9,KKLKIFAMPMQDIKMILSMVQLDS,2.19
10,KKLKIFAMPMQDIKMILDMVQLDS,2.22
11,KKLKIFAMPMQDIKMILQMVQLDS,2.18
12,KKLKIFAMPMQDIKMILMMVQLDS,2.67
13,KKLKIFAMPMQDIKMILRMVQLDS,3.54
14,KKLKIFAMPMQDIKMILLMVQLDS,3.04
15,KKLKIFAMPMQDIKMILPMVQLDS,1.56
16,KKLKIFAMPMQDIKMILYMVQLDS,2.62
17,KKLKIFAMPMQDIKMILTMVQLDS,2.42
18,KKLKIFAMPMQDIKMILAMVQLDS,3.37
19,KKLKIFAMPMQDIKMILFMVQLDS,3.27
20,KKLKIFAMPMQDIKMILVMVQLDS,4.3
21,KKLKIFAMPMQDIKMILGMVQLDS,3.49
22,KKLKIFAMPMQDIKMILNMVQLDS,1.99

row,Variant,protein stability index
1,KKLKIFAMPMQDIKMILWMVQLDS,3.98
2,KKLKIFAMPMQDIKMILEMVQLDS,3.69
3,KKLKIFAMPMQDIKMILHMVQLDS,2.65
4,KKLKIFAMPMQDIKMVLKMVQLDS,2.48
5,KKLKIFAMPMQDIKMPLKMVQLDS,1.63
6,KKLKIFAMPMQDIKMHLKMVQLDS,2.66
7,KKLKIFAMPMQDIKMNLKMVQLDS,1.23
8,KKLKIFAMPMQDIKMFLKMVQLDS,3.41
9,KKLKIFAMPMQDIKMELKMVQLDS,1.47
10,KKLKIFAMPMQDIKMWLKMVQLDS,2.79
11,KKLKIFAMPMQDIKMQLKMVQLDS,1.6
12,KKLKIFAMPMQDIKMGLKMVQLDS,2.32
13,KKLKIFAMPMQDIKMYLKMVQLDS,3.04
14,KKLKIFAMPMQDIKMRLKMVQLDS,1.75
15,KKLKIFAMPMQDIKMCLKMVQLDS,2.5
16,KKLKIFAMPMQDIKMDLKMVQLDS,1.73
17,KKLKIFAMPMQDIKMKLKMVQLDS,1.69
18,KKLKIFAMPMQDIKMTLKMVQLDS,3.06
19,KKLKIFAMPMQDIKMLLKMVQLDS,1.71
20,KKLKIFAMPMQDIKMSLKMVQLDS,3.21
21,KKLKIFAMPMQDIKMILKFVQLDS,2.46
22,KKLKIFAMPMQDIKMILKWVQLDS,2.46

row,Variant,protein stability index
1,KKLKIFAMPMQDIKMILKPVQLDS,1.69
2,KKLKIFAMPMQDIKMILKQVQLDS,2.89
3,KKLKIFAMPMQDIKMILKNVQLDS,2.21
4,KKLKIFAMPMQDIKMILKSVQLDS,2.44
5,KKLKIFAMPMQDIKMILKDVQLDS,2.13
6,KKLKIFAMPMQDIKMILKHVQLDS,2.59
7,KKLKIFAMPMQDIKMILKGVQLDS,2.15
8,KKLKIFAMPMQDIKMILKTVQLDS,3.38
9,KKLKIFAMPMQDIKMILKIVQLDS,2.81
10,KKLKIFAMPMQDIKMILKCVQLDS,3.53
11,KKLKIFAMPMQDIKMILKMVQLTS,2.86
12,KKLKIFAMPMQDIKMILKMVQLIS,2.33
13,KKLKIFAMPMQDIKMILKMVQLLS,3.12
14,KKLKIFAMPMQDIKMILKMVQLFS,3.54
15,KKLKIFAMPMQDIKMILKMVQLES,3.61
16,KKLKIFAMPMQDIKMILKMVQLWS,2.58
17,KKLKIFAMPMQDIKMILKMVQLMS,1.94
18,KKLKIFAMPMQDIKMILKMVQLSS,3.79
19,KKLKIFAMPMQDIKMILKMVQLPS,3.05
20,KKLKIFAMPMQDIKMILKMVQLKS,2.4
21,KKLKIFAMPMQDIKMILKMVQLNS,2.18
22,KKLKIFAMPMQDIKMILKMVKLDS,3.17

row,Variant,protein stability index
1,KKLKIFAMPMQDIKMILKMVGLDS,3.64
2,KKLKIFAMPMQDIKMILKMVCLDS,3.19
3,KKLKIFAMPMQDIKMILKMVNLDS,2.82
4,KKLKIFAMPMQDIKMILKMVMLDS,2.33
5,KKLKIFAMPMQDIKMILKMVWLDS,1.98
6,KKLKIFAMPMQDIKMILKMVALDS,3.36
7,KKLKIFAMPMQDIKMILKMVTLDS,3.42
8,KKLKIFAMPMQDIKMILKMVPLDS,3.91
9,KKLKIFAMPMQDIKMILKMVELDS,2.03
10,KKLKIFAMPMQDIKMILKMVILDS,2.69
11,KKLKIFAMPMQDIKMIDKMVQLDS,1.88
12,KKLKIFAMPMQDIKMIQKMVQLDS,1.62
13,KKLKIFAMPMQDIKMINKMVQLDS,1.5
14,KKLKIFAMPMQDIKMICKMVQLDS,2.73
15,KKLKIFAMPMQDIKMIEKMVQLDS,2.04
16,KKLKIFAMPMQDIKMIHKMVQLDS,2.39
17,KKLKIFAMPMQDIKMIKKMVQLDS,2.11
18,KKLKIFAMPMQDIKMIGKMVQLDS,1.71
19,KKLKIFAMPMQDIKMIMKMVQLDS,2.59
20,KKLKIFAMPMQDIKMIIKMVQLDS,2.19
21,KKLKIFAMPMQDIKMITKMVQLDS,1.12
22,KKLKIFAMPMQDIKMISKMVQLDS,2.1

row,Variant,protein stability index
1,KKLKIFAMPMQDIKMIRKMVQLDS,1.75
2,KKLKIFAMPMQDIKMIYKMVQLDS,3.8
3,KKLKIFAMPMQDIKMIPKMVQLDS,2.27
4,KKLKIFAMPMQDIKMIVKMVQLDS,2.64
5,KKLKIFAMPMQDIKMIWKMVQLDS,2.06
6,KKLKIFAMPMQDIKMIAKMVQLDS,2.66
7,KKLKIFAMPMQDIKMILKMCQLDS,2.55
8,KKLKIFAMPMQDIKMILKMTQLDS,3.9
9,KKLKIFAMPMQDIKMILKMQQLDS,2.9
10,KKLKIFAMPMQDIKMILKMSQLDS,2.01
11,KKLKIFAMPMQDIKMILKMFQLDS,2.98
12,KKLKIFAMPMQDIKMILKMKQLDS,4.07
13,KKLKIFAMPMQDIKMILKMRQLDS,2.37
14,KKLKIFAMPMQDIKMILKMDQLDS,2.19
15,KKLKIFAMPMQDIKMILKMIQLDS,4.22
16,KKLKIFAMPMQDIKMILKMEQLDS,2.33
17,KKLKIFAMPMQDIKMILKMHQLDS,3.51
18,KKLKIFAMPMQDIKMILKMYQLDS,2.21
19,KKLKIFAMPMQDIKMILKMNQLDS,2.32
20,KKLKIFAMPMQDIKMILKMPQLDS,2.22
21,KKLKIFAMPMQDIKMILKMAQLDS,3.51
